Laboratory results reported in patent publication US20210347895A1 (IMMUNOME, published 2021).

Key:
BSA = target: T1, BSA (UniProt P02769 25-607); assay: flow cytometry; BSA-coated latex beads, two-colour dot plot of IMM20059 against anti-CD63
T1 construct: also called BSA-coated beads

recombinant PD-L1 = target: T2, recombinant PD-L1 (UniProt Q9NZQ7 19-238); assay: dot blot; recombinant PD-L1 spotted at 4, 10 and 40 ng, probed with the antibody
T2 construct: also called Programmed Death Ligand-1
T2 sequence (Q9NZQ7 19-238 limits assumed): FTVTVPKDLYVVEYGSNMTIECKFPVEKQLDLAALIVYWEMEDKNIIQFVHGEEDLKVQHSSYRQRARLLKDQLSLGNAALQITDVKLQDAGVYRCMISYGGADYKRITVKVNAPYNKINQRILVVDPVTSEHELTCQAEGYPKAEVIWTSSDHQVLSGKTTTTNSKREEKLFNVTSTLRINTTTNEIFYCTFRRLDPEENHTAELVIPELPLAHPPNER

T1 sequence (P02769 25-607 limits assumed): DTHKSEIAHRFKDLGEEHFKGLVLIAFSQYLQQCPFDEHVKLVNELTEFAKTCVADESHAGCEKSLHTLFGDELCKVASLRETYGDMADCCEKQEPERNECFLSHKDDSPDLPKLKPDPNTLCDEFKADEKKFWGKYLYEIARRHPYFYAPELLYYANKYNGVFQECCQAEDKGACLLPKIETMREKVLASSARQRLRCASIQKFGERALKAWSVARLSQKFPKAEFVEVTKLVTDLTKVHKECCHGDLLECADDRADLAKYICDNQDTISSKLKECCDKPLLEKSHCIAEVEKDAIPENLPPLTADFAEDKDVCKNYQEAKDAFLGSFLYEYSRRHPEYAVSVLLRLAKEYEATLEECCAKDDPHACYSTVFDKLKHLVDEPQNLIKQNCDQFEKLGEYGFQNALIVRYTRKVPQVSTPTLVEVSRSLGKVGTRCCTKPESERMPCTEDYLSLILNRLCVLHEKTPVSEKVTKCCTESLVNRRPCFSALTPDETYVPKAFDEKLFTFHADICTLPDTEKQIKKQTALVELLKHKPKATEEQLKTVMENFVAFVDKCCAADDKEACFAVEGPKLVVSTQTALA

B1: IMM20059 (antibody, V domains shown)
VH: EVQLVESGGGLVQPGGSLRLSCAASGFTFSIHSLNWVRQAPGKGLEWVSYISSNSTTIYYADSVKGRFTISRDNAKDSLYLQMNSLRDEDTAVYYCARDYYCTGGTCFFLPDLWGRGALVTVSS
VL: EIVLTQSPATLSLSPGERATLSCRASQNISNFLAWYQHKPGQAPRLLIYDASIRATGIPARFSGSGSGTDFSLTISSLEPEDFAVYFCQQRYNWLTFGGGTKVEIKR
notes: Recombinantly expressed human IgG1 with the PR045-2H11 VH and VL domains
B1: no binding (BSA); no binding (tested: 40 ng) (recombinant PD-L1).
